The labels stand for the following.
B1: Tubulin beta chain (Homo sapiens), P07437 (parent)
chain: MREIVHIQAGQCGNQIGAKFWEVISDEHGIDPTGTYHGDSDLQLDRISVYYNEATGGKYVPRAILVDLEPGTMDSVRSGPFGQIFRPDNFVFGQSGAGNNWAKGHYTEGAELVDSVLDVVRKEAESCDCLQGFQLTHSLGGGTGSGMGTLLISKIREEYPDRIMNTFSVVPSPKVSDTVVEPYNATLSVHQLVENTDETYCIDNEALYDICFRTLKLTTPTYGDLNHLVSATMSGVTTCLRFPGQLNADLRKLAVNMVPFPRLHFFMPGFAPLTSRGSQQYRALTVPELTQQVFDAKNMMAACDPRHGRYLTVAAVFRGRMSMKEVDEQMLNVQNKNSSYFVEWIPNNVKTAVCDIPPRGLKMAVTFIGNSTAIQELFKRISEQFTAMFRRKAFLHWYTGEGMDEMEFTEAESNMNDLVSEYQQYQDATAEEEEDFGEEAEEEA
B2: Tubulin beta-6 chain (Homo sapiens), Q9BUF5 (parent)
chain: MREIVHIQAGQCGNQIGTKFWEVISDEHGIDPAGGYVGDSALQLERINVYYNESSSQKYVPRAALVDLEPGTMDSVRSGPFGQLFRPDNFIFGQTGAGNNWAKGHYTEGAELVDAVLDVVRKECEHCDCLQGFQLTHSLGGGTGSGMGTLLISKIREEFPDRIMNTFSVMPSPKVSDTVVEPYNATLSVHQLVENTDETYCIDNEALYDICFRTLKLTTPTYGDLNHLVSATMSGVTTSLRFPGQLNADLRKLAVNMVPFPRLHFFMPGFAPLTSRGSQQYRALTVPELTQQMFDARNMMAACDPRHGRYLTVATVFRGPMSMKEVDEQMLAIQSKNSSYFVEWIPNNVKVAVCDIPPRGLKMASTFIGNSTAIQELFKRISEQFSAMFRRKAFLHWFTGEGMDEMEFTEAESNMNDLVSEYQQYQDATANDGEEAFEDEEEEIDG
B3: Tubulin beta-4A chain (Homo sapiens), P04350 (parent)
chain: MREIVHLQAGQCGNQIGAKFWEVISDEHGIDPTGTYHGDSDLQLERINVYYNEATGGNYVPRAVLVDLEPGTMDSVRSGPFGQIFRPDNFVFGQSGAGNNWAKGHYTEGAELVDAVLDVVRKEAESCDCLQGFQLTHSLGGGTGSGMGTLLISKIREEFPDRIMNTFSVVPSPKVSDTVVEPYNATLSVHQLVENTDETYCIDNEALYDICFRTLKLTTPTYGDLNHLVSATMSGVTTCLRFPGQLNADLRKLAVNMVPFPRLHFFMPGFAPLTSRGSQQYRALTVPELTQQMFDAKNMMAACDPRHGRYLTVAAVFRGRMSMKEVDEQMLSVQSKNSSYFVEWIPNNVKTAVCDIPPRGLKMAATFIGNSTAIQELFKRISEQFTAMFRRKAFLHWYTGEGMDEMEFTEAESNMNDLVSEYQQYQDATAEEGEFEEEAEEEVA

In one assay the parent is B1. The note with it: with lrrk2_human LRRK2, Q5S007.
Chain of lrrk2_human LRRK2, Q5S007 (Q5S007 whole entry): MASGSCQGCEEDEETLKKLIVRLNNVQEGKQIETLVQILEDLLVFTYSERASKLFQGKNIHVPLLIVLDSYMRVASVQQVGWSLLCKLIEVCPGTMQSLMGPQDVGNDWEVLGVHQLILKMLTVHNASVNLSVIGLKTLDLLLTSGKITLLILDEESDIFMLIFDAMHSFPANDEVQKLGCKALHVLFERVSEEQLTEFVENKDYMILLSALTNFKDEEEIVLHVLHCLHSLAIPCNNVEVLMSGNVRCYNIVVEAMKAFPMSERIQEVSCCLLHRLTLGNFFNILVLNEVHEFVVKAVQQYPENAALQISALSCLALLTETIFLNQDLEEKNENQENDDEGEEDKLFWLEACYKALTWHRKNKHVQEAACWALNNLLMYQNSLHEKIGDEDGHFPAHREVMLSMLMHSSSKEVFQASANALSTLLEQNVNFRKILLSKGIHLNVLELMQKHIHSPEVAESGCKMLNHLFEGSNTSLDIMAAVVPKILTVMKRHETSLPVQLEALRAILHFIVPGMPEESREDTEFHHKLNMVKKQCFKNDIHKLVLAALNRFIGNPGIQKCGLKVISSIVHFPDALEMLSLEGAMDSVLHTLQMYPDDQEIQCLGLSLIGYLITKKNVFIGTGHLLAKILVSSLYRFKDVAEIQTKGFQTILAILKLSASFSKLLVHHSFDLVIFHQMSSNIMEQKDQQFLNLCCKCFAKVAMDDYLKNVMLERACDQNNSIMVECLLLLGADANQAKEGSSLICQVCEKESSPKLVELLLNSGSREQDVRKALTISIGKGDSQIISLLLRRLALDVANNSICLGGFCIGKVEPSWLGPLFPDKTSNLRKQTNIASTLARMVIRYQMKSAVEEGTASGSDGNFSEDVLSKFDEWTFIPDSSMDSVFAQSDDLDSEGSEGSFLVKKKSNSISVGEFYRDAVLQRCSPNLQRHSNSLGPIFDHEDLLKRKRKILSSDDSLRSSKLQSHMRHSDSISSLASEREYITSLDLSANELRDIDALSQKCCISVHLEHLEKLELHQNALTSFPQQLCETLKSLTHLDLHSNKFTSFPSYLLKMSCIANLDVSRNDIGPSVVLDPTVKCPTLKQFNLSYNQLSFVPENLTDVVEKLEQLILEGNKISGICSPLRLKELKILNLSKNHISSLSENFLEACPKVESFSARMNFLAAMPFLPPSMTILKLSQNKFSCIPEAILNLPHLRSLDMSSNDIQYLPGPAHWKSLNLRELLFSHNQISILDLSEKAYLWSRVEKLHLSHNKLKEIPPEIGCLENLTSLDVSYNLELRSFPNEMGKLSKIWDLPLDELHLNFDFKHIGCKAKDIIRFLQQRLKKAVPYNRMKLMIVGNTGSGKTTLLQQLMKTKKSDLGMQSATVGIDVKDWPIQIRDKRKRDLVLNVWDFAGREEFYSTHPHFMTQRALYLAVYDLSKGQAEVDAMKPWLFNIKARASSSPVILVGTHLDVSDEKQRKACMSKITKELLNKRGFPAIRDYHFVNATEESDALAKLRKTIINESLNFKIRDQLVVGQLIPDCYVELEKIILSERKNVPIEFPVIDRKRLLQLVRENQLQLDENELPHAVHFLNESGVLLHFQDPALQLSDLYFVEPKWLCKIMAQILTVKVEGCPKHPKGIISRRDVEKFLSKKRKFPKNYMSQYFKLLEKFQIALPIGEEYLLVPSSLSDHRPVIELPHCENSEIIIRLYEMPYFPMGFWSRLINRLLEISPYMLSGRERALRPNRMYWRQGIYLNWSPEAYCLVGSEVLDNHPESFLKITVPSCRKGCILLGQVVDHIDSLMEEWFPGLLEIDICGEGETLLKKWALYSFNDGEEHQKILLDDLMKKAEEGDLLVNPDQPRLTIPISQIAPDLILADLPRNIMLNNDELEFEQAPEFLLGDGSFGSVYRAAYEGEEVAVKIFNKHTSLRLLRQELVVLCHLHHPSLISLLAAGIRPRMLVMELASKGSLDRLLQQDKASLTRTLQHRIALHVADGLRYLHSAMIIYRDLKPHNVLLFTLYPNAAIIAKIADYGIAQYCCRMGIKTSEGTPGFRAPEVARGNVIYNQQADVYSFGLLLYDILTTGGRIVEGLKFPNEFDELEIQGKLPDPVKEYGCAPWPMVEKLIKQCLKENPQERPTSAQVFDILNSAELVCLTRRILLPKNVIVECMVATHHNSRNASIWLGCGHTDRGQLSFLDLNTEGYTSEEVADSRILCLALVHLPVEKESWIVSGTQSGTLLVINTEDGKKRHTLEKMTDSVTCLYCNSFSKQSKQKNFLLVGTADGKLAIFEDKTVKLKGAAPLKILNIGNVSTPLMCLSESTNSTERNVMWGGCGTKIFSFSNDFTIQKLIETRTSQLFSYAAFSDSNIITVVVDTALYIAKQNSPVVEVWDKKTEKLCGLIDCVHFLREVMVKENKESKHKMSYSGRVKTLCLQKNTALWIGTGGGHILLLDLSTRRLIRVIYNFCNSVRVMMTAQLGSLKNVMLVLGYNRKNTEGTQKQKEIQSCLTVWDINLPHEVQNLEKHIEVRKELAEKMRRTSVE
As to MREIVHIQAGQCGNQIGAKFWEVISDEHGIDPTGTYHGDSDLQLDRISVYYNEATGGKYVPRAILVDLEPGTMDSVRSGPFGQIFRPDNFVFGQSGAGNNWAKGHYTEGAELVDSVLDVVRKEAESCDCLQGFQLTHSLGGGTGSGMGTLLISKIREEYPDRIMNTFSVVPSPKVSDTVVEPYNATLSVHQLVENTDETYCIDNEALYDICFRTLKLTTPTYGDLNHLVSATMSGVTTCLRFPGQLNADLRKLAVNMVPFPRLHFFMPGFAPLTSRGSQQYRALTVPELTQQVFDAKNMMAACDPRHGRYLTVAAVFRGRMSMKEVDEQMLNVQNKNSSYFVEWIPNNVKTAVCDIPPRGLKMSVTFIGNSTAIQELFKRISEQFTAMFRRKAFLHWYTGEGMDEMEFTEAESNMNDLVSEYQQYQDATAEEEEDFGEEAEEEA [A364S], the “effect of a mutation on the interaction” value is “disrupting interaction”.
The same measure, in the same setting: for MREIVHIQAGQCGNQIGAKFWEVISDEHGIDPTGTYHGDSDLQLDRISVYYNEATGGKYVPRAILVDLEPGTMDSVRSGPFGQIFRPDNFVFGQSGAGNNWAKGHYTEGAELVDSVLDVVRKEAESCDCLQGFQLTHSLGGGTGSGMGTLLISKIREEYPDRIMNTFSVVPSPKVSDTVVEPYNATLSVHQLVENTDETYCIDNEALYDICFRTLKLTTPTYGDLNHLVSATMSGVTTCLRFPGQLNADLRKLAVNMVPFPRLHFFMPGFAPLTSRGSQQYRALTVPELTQQVFDAKNMMAACDPRHGRYLTVAAVFRGRMSMKEVDEQMLNVQNKNSSYFVEWIPNNVKTAVCDIPPRGLKMDVTFIGNSTAIQELFKRISEQFTAMFRRKAFLHWYTGEGMDEMEFTEAESNMNDLVSEYQQYQDATAEEEEDFGEEAEEEA [A364D] the value was “disrupting interaction”; for MREIVHIQAGQCGNQIGAKFWEVISDEHGIDPTGTYHGDSDLQLDRISVYYNEATGGKYVPRAILVDLEPGTMDSVRSGPFGQIFRPDNFVFGQSGAGNNWAKGHYTEGAELVDSVLDVVRKEAESCDCLQGFQLTHSLGGGTGSGMGTLLISKIREEYPDRIMNTFSVVPSPKVSDTVVEPYNATLSVHQLVENTDETYCIDNEALYDICFRTLKLTTPTYGDLNHLVSATMSGVTTCLRFPGQLNADLRKLAVNMVPFPRLHFFMPGFAPLTSRGSQQYRALTVPELTQQVFDAKNMMAACDPRHGRYLTVAAVFRGRMSMKEVDEQMLNVQNKNSSYFVEWIPNNVKTAVCDIPPRGLKMEVTFIGNSTAIQELFKRISEQFTAMFRRKAFLHWYTGEGMDEMEFTEAESNMNDLVSEYQQYQDATAEEEEDFGEEAEEEA [A364E], “disrupting interaction”.

The next assay covers variants of B2. As to conditions: with lrrk2_human LRRK2, Q5S007.
As to MREIVHIQAGQCGNQIGTKFWEVISDEHGIDPAGGYVGDSALQLERINVYYNESSSQKYVPRAALVDLEPGTMDSVRSGPFGQLFRPDNFIFGQTGAGNNWAKGHYTEGAELVDAVLDVVRKECEHCDCLQGFQLTHSLGGGTGSGMGTLLISKIREEFPDRIMNTFSVMPSPKVSDTVVEPYNATLSVHQLVENTDETYCIDNEALYDICFRTLKLTTPTYGDLNHLVSATMSGVTTSLRFPGQLNADLRKLAVNMVPFPRLHFFMPGFAPLTSRGSQQYRALTVPELTQQMFDARNMMAACDPRHGRYLTVATVFRGRMSMKEVDEQMLAIQSKNSSYFVEWIPNNVKVAVCDIPPRGLKMSSTFIGNSTAIQELFKRISEQFSAMFRRKAFLHWFTGEGMDEMEFTEAESNMNDLVSEYQQYQDATANDGEEAFEDEEEEIDG [P320R;A364S], the “effect of a mutation on the interaction” value is reported as “disrupting interaction”.
On the same count and under the same terms, for MREIVHIQAGQCGNQIGTKFWEVISDEHGIDPAGGYVGDSALQLERINVYYNESSSQKYVPRAALVDLEPGTMDSVRSGPFGQLFRPDNFIFGQTGAGNNWAKGHYTEGAELVDAVLDVVRKECEHCDCLQGFQLTHSLGGGTGSGMGTLLISKIREEFPDRIMNTFSVMPSPKVSDTVVEPYNATLSVHQLVENTDETYCIDNEALYDICFRTLKLTTPTYGDLNHLVSATMSGVTTSLRFPGQLNADLRKLAVNMVPFPRLHFFMPGFAPLTSRGSQQYRALTVPELTQQMFDARNMMAACDPRHGRYLTVATVFRGRMSMKEVDEQMLAIQSKNSSYFVEWIPNNVKVAVCDIPPRGLSMASTFIGNSTAIQELFKRISEQFSAMFRRKAFLHWFTGEGMDEMEFTEAESNMNDLVSEYQQYQDATANDGEEAFEDEEEEIDG [P320R;K362S] the value was “disrupting interaction”.

Variants of B3 are the subject of the next assay. The note with it: with lrrk2_human LRRK2, Q5S007.
Take MREIVHLQAGQCGNQIGAKFWEVISDEHGIDPTGTYHGDSDLQLERINVYYNEATGGNYVPRAVLVDLEPGTMDSVRSGPFGQIFRPDNFVFGQSGAGNNWAKGHYTEGAELVDAVLDVVRKEAESCDCLQGFQLTHSLGGGTGSGMGTLLISKIREEFPDRIMNTFSVVPSPKVSDTVVEPYNATLSVHQLVENTDETYCIDNEALYDICFRTLKLTTPTYGDLNHLVSATMSGVTTCLRFPGQLNADLRKLAVNMVPFPRLHFFMPGFAPLTSRGSQQYRALTVPELTQQMFDAKNMMAACDPRHGRYLTVAAVFRGRMSMKEVDEQMLSVQSKNSSYFVEWIPNNVKTAVCDIPPRGLKMDATFIGNSTAIQELFKRISEQFTAMFRRKAFLHWYTGEGMDEMEFTEAESNMNDLVSEYQQYQDATAEEGEFEEEAEEEVA [A364D]: the “effect of a mutation on the interaction” value was “disrupting interaction”.
For MREIVHLQAGQCGNQIGAKFWEVISDEHGIDPTGTYHGDSDLQLERINVYYNEATGGNYVPRAVLVDLEPGTMDSVRSGPFGQIFRPDNFVFGQSGAGNNWAKGHYTEGAELVDAVLDVVRKEAESCDCLQGFQLTHSLGGGTGSGMGTLLISKIREEFPDRIMNTFSVVPSPKVSDTVVEPYNATLSVHQLVENTDETYCIDNEALYDICFRTLKLTTPTYGDLNHLVSATMSGVTTCLRFPGQLNADLRKLAVNMVPFPRLHFFMPGFAPLTSRGSQQYRALTVPELTQQMFDAKNMMAACDPRHGRYLTVAAVFRGRMSMKEVDEQMLSVQSKNSSYFVEWIPNNVKTAVCDIPPRGLKMEATFIGNSTAIQELFKRISEQFTAMFRRKAFLHWYTGEGMDEMEFTEAESNMNDLVSEYQQYQDATAEEGEFEEEAEEEVA [A364E], the “effect of a mutation on the interaction” value is listed as “disrupting interaction”.
Still for that read-out and setting: then MREIVHLQAGQCGNQIGAKFWEVISDEHGIDPTGTYHGDSDLQLERINVYYNEATGGNYVPRAVLVDLEPGTMDSVRSGPFGQIFRPDNFVFGQSGAGNNWAKGHYTEGAELVDAVLDVVRKEAESCDCLQGFQLTHSLGGGTGSGMGTLLISKIREEFPDRIMNTFSVVPSPKVSDTVVEPYNATLSVHQLVENTDETYCIDNEALYDICFRTLKLTTPTYGDLNHLVSATMSGVTTCLRFPGQLNADLRKLAVNMVPFPRLHFFMPGFAPLTSRGSQQYRALTVPELTQQMFDAKNMMAACDPRHGRYLTVAAVFRGRMSMKEVDEQMLSVQSKNSSYFVEWIPNNVKTAVCDIPPRGLKMSATFIGNSTAIQELFKRISEQFTAMFRRKAFLHWYTGEGMDEMEFTEAESNMNDLVSEYQQYQDATAEEGEFEEEAEEEVA [A364S], with “disrupting interaction”.

(Values after IntAct's records for PubMed 24275654.)
